Experimental data: PMC10933150

Legend:
[1] = target: α7-mCherry (human α7 nicotinic acetylcholine receptor subunit with mCherry in the M3-M4 cytoplasmic loop) (human) (UniProt P36544)
[2] = target: α7-mCherry (human α7 nicotinic acetylcholine receptor subunit with mCherry in the M3-M4 cytoplasmic loop) (human) (UniProt P36544); remark: listed apart in the source
[3] = target: α7-mCherry (human α7 nicotinic acetylcholine receptor subunit with mCherry in the M3-M4 cytoplasmic loop) (human) (UniProt P36544); assay: FRET or BRET; acceptor photobleaching FRET (apFRET) by confocal microscopy in live HEK293 cells 2 days after transfection; eGFP donor, mCherry acceptor; region of interest in the ER; in DMEM at 37 °C and 5% CO2

UniProt P36544, sequence (P36544 23-502): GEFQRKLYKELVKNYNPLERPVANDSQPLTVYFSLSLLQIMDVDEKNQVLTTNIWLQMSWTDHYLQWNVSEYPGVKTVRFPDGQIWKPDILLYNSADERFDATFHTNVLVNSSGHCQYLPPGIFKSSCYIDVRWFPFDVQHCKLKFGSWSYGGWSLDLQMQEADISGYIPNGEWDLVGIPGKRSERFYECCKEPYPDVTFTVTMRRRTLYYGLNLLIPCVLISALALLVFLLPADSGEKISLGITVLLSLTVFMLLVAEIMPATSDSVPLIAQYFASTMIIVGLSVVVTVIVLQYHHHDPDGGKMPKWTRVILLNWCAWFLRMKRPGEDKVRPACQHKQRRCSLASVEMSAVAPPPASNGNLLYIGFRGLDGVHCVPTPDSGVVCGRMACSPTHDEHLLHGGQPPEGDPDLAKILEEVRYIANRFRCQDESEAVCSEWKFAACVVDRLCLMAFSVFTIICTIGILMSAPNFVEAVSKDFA

| Substance | ^125I-α-bungarotoxin binding to intact HEK293 cells (cell surface α7), decrease with eGFP-RIC3G88R against eGFP-RIC3WT, α7:RIC3 cDNA 1:1 or 5:1 [1] [%] | fold decrease in amplitude of maximal currents elicited by 1 mM acetylcholine in Xenopus oocytes (level of functional α7 nAChR); untagged α7 and RIC3G88R, tagged constructs gave the same pattern (data not shown) [2] [fold] | FRET efficiency (EF) [3] [%] |
| --- | --- | --- | --- |
| eGFP-RIC3G88R (RIC3 variant G88R with eGFP fused to the N-terminus) (from UniProt Q7Z5B4-5 29-368) (natural protein) | 50 | 1.5 | 10.7 |
| eGFP-RIC3WT (wild-type RIC3 with eGFP fused to the N-terminus) (from UniProt Q7Z5B4-5 29-368) (natural protein) |  |  | 7.24 |
